Consider one substance from article PMC2115935.

The target in this assay is integral membrane proteins of stripped rat liver cell membranes (rat (endogenous in liver)). Description: co-sedimentation.

As for “Actin, isolated from rabbit skeletal muscle, 125I-labeled (from UniProt P68135 1-377) (natural protein)”, the dissociation constant (Kd) stood at 1.6 µM.

Broadly, the Kd is a measure of binding affinity in units of concentration. A low value points to tighter binding.
